Consider 25 molecules from patent publication US20030228371A1 (STASYS TECHNOLOGIES, published 2003).

As usually defined, the IC50 is the concentration needed to halve the response being measured. Low readings indicate greater potency, high ones weaker potency. What is called Ki is the equilibrium dissociation constant of an inhibitor or competing ligand from its target. High values mean a looser hold on the target, low ones a stronger hold on the target. Broadly, the Kd is the concentration at which binding is half-saturated. High values mean a looser complex, low ones a tighter complex.

Read-outs that look alike come from different tables or passages of the source. Square brackets hold non-standard residues; d marks the D form. Ends that are not written are not given here. * marks the point of attachment. 2Thi = N[C@@H](Cc1cccs1)C(=O)O; Nicotinoyl = O=C(c1cccnc1)*

The target in test [1] is T1, human angiotensin AT2 receptor (human, UniProt P50052 1-363).
T1 sequence (looked up): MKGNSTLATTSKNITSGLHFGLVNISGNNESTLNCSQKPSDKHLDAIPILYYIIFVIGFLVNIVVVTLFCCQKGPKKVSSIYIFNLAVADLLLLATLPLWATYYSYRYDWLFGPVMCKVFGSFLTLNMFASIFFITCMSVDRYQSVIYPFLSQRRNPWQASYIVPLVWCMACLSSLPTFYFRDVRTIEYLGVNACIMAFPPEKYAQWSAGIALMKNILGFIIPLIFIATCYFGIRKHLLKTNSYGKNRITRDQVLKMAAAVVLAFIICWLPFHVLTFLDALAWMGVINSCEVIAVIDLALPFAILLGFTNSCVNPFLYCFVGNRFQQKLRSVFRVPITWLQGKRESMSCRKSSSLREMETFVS

The target of test [2] is T1, human angiotensin AT2 receptor. The source holds these as a separate data set.
Test [3] shares this target. How it is done: (§1) Compounds were screened at 10 μM. […] Biochem. Biophys. Res. Comm.
The source holds these as a separate data set.

Test [4] shares this target. The test is described as follows: [125I]CGP-42112A binding to membranes of HeLa cells expressing human AT2 receptor. How it is done:
as §1

For a further test, the target named is Glutamate AMPA. Kind of test: receptor panel ligand-binding screen, FPAh at 10 µM.
The target of test [5] is T2, Thyrotropin Releasing Hormone.
T2 sequence (P34981 whole entry, species assumed, looked up): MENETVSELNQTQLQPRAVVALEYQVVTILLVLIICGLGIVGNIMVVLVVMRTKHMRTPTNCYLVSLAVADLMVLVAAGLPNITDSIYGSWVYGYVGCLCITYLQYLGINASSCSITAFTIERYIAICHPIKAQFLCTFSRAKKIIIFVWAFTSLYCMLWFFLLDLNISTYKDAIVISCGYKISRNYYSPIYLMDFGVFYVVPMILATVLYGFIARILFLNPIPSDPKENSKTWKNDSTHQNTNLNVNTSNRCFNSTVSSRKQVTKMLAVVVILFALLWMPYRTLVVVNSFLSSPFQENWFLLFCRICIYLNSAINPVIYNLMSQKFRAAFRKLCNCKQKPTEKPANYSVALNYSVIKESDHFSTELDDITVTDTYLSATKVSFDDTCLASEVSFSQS
The test is described as above.

Another test has as its target Potassium Channel [Ka]. The test is described as above.
The next test addresses T3, Bradykinin B1.
T3 sequence (P46663 whole entry, species assumed, looked up): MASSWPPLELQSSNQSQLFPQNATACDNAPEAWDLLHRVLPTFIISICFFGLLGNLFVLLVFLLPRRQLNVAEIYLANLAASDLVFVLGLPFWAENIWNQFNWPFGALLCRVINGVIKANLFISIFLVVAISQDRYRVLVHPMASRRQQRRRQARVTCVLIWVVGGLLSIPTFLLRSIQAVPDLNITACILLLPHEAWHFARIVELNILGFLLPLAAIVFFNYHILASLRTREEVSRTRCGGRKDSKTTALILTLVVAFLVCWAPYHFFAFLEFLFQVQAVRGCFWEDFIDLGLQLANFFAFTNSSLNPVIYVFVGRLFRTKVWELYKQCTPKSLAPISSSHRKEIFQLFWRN
The description is as above.

For a further test, the target named is Serotonin 5-HT 2a. The description is as above.
Serotonin 5-HT 2a, sequence (P28223 whole entry): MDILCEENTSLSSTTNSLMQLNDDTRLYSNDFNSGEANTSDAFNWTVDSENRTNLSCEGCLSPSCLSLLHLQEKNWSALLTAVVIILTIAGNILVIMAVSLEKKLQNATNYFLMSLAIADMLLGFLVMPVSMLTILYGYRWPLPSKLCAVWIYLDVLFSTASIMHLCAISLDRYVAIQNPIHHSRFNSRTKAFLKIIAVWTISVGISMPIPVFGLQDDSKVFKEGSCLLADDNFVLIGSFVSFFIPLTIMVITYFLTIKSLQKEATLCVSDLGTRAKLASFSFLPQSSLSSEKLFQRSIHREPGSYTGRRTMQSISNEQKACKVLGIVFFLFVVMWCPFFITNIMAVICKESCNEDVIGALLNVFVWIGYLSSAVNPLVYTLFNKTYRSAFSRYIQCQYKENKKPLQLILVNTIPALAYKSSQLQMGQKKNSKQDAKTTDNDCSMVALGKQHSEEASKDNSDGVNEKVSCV
The next test concerns the target Estrogen ERa. The test is described as above.
The target in the next test is Cholecystokinin. The test is described as above.
The target of test [6] is Vascular endothelial growth factor. Described as above.
Test [7] has as its target Inositol Triphosphate IP3. Described as above.
For test [8], the target named is T4, human angiotensin AT2 receptor (human) (UniProt P50052).
T4 sequence (looked up): T1 sequence (looked up)

For the molecule [Lys0-Hyp3] Bradykinin (peptide), the % Inhibition ATII receptor in test [1] was 13%.

For “N-Admantanecarbonyl-DArg0-Hyp3, Thi5,8, DPhe7] Bradykinin (peptide)”, the % Inhibition ATII receptor in [1] came out at 63%.

For Bradykinin (1-3) (peptide), the % Inhibition ATII receptor in test [1] is -2%. On the same count and under the same terms, as for “N-Admantaneacetyl-DArg0-Hyp3, Thi5,8,DPhe7] Bradykinin (peptide)”, the figure is 61%. Turning to Saralasin (peptide), in [2], the IC50 is 0.28 nM, the inhibitory constant (Ki) came to 0.091 nM and the nH turned out to be 0.9. Regarding XRPXGXSXXR (D-Arg at 0; Hyp at 3; Igl at 5; D-Igl at 7; Oic at 8 (bradykinin numbering)) [B9430], in [1], the % Inhibition ATII receptor is 70%. ISRPPGFSPFR (also called VP054) [Ile-Ser0]-Bradykinin]: the “% Inhibition ATII receptor” value in test [3] came to 29%.

For PPGFSPFR [Bradykinin (2-9)], the % Inhibition ATII receptor in test [1] was -13%. Same read-out and setting: the same measure for XRPXGXSXXR (D-Arg at 0; Hyp at 3; Thi at 5; D-Tic at 7; Oic at 8 (bradykinin numbering)) [Hoe 140]: 29%.

B1: CGP-42112A (peptide)
peptide: Nicotinoyl-YKHPI-OH
modifications: not fully specified (residue 2)
notes: Modified peptide ligand of the AT2 receptor and radioligand of the assay; also called CPG42112A
With B1, in test [3], the 50% inhibitory concentration (IC50) was found to be 0.024 nM; the affinity, expressed as Ki, was 0.0078 nM; the nH was determined as 1.1. For the same molecule, the affinity in test [4], expressed as Kd, was 0.012 nM.

In the case of RPPG[2Thi]S[dF][2Thi]R [[Thi5,8,DPhe7] Bradykinin], the % Inhibition ATII receptor in [1] turned out to be 53%. The same measure, in the same setting: the same measure for PPGFSP [Bradykinin (2-7)]: -6%; for RPPGF [Bradykinin (1-5)]: 1%; for RPPGFS [Bradykinin (1-6)]: -12%. With RPPGFSP (also called VP060) [Bradykinin (1-7)], the “% Inhibition ATII receptor” value in test [3] was found to be 55%. RPPGFS[dF]FR [[DPhe7] Bradykinin]: the % Inhibition ATII receptor in [1] came out at 9%. With MKRPPGFSPFR (also called VP049) [Met-Lys0] Bradykinin], the “% Inhibition ATII receptor” value in [3] came to 38%.

Consider KRPPGFSPL (also called VP041) [Lys-(Des-Arg9, Leu8)-Bradykinin], for which the “% Inhibition ATII receptor” value in test [3] is 98%. For the molecule XRPXGXSXXR (D-Arg at 0; Hyp at 3; Thi at 5; D-Igl at 7; Oic at 8 (bradykinin numbering)) [B9340], in [1], the % Inhibition ATII receptor was 35%. Consider RPPGYSPFR (also called VP053) [Tyr5] Bradykinin], for which the “% Inhibition ATII receptor” value in test [3] is 13%. With KRPPGFSPFR (also called VP048) [[Lys0] Bradykinin], the “% Inhibition ATII receptor” value in test [3] is 29%. Same read-out and setting: as for KRPAGFSPFR (also called VP050) [Lys0-Ala3] Bradykinin], the figure is 18%; as for YRPPGFSPFR (also called VP051) [[Tyr0] Bradykinin], 33%.

Regarding ADSGEGDFLAEGGGVR [human form of Fibrinopeptide-A], the % stimulated (ligand-receptor binding) with Glutamate AMPA worked out at 30%; with Serotonin 5-HT 2a, 21%; in test [6], 22%. The % inhibited (ligand-receptor binding) in test [5] was found to be 23%; in the test with Potassium Channel [Ka], 25%; with Bradykinin B1, 24%; in the test with Estrogen ERa, 33%; with Cholecystokinin it was 33%; in test [7] it was 33%.

Regarding RPPGFSPYR [[Tyr8] Bradykinin], the % Inhibition ATII receptor in [8] was -1%.
